From patent US20240325557A1 (INNATE PHARMA, published 2024)
Where a chain is given by its changes, count along the chain named.

Experiments:
[1] = biological target: T1, huNectin4-C1C2-V5 (C1C2 construct, lacking the Ig-like V domain) (human, UniProt Q96NY8 148-510); assay: flow cytometry on Nectin4-C1C2-V5 sorted cells
T1 construct: Expressed on CHO cells; also called Hu-Nectin4 IgC1C2-V5; Nectin4-C1C2-V5 sorted cells
T1 sequence: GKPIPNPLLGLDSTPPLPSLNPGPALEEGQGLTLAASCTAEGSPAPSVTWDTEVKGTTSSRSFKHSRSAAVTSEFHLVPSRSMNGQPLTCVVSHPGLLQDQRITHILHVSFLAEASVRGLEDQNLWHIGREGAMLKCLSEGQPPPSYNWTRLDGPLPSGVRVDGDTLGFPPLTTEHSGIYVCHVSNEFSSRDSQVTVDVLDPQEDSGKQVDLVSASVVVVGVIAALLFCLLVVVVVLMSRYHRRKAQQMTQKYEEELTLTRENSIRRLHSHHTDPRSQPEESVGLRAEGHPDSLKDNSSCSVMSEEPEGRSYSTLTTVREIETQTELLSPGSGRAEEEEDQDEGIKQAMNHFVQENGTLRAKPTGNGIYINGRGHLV

[2] = biological target: T2, human PVR on CHO cells (human, UniProt P15151 28-417); assay: flow cytometry on CHO cells expressing human PVR
T2 construct: also called PVR (Nectin-5)
T2 sequence: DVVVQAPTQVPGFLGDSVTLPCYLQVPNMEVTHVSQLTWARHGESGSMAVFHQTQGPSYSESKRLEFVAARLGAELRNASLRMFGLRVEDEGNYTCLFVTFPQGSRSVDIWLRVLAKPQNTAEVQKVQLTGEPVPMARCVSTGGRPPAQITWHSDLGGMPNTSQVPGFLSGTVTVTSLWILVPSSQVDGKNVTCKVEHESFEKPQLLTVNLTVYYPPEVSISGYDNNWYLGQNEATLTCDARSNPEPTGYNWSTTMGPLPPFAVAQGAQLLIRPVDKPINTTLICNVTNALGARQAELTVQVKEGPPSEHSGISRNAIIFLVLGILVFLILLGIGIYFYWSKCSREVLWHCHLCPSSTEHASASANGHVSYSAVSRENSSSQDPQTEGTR
Procedure: (§1) Anti-Nectin-4 antibodies were tested by flow cytometry for binding to different CHO cell lines made to express respectively the human Nectin 1, Nectin 2, Nectin 3 and PVR proteins. The expression of each cell lines was controlled and validated with known respectively the anti-human Nectin1, anti-human Nectin2, anti-human Nectin3 and anti-human PVR antibodies. The mature amino acid sequence of the proteins expressed by the cells were as follows:
(§2) Nectin 1, Nectin 2, Nectin 3 and PVR proteins as in Example 12. […] Epitope mapping was carried out by assessing competition for binding to Nectin-4 by SPR as in Example 14.

[3] = biological target: T3, human Nectin-4 Mutant 7 (human, UniProt Q96NY8 32-510); assay: binding to HEK-293T cells transfected with the Nectin-4 mutant
T3 construct: Expressed on transfected HEK-293T cells; also called S195A/K197T/S199A
T3 chain: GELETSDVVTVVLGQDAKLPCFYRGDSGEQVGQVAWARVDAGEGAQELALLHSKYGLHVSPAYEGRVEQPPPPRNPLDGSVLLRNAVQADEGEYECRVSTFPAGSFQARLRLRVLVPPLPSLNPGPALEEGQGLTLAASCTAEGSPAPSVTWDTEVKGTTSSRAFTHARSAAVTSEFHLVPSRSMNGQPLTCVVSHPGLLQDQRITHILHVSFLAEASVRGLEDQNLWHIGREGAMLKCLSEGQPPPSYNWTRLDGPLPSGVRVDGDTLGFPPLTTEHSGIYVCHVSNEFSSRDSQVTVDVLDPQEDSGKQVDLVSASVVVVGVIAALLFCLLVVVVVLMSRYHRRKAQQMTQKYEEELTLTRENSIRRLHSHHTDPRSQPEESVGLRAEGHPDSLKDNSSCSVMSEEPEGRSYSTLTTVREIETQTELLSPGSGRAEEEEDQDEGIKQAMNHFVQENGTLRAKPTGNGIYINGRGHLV

[4] = biological target: T4, human Nectin-4 Mutant 7bis (human, UniProt Q96NY8 32-510); assay: as above
T4 construct: Expressed on transfected HEK-293T cells; also called A72P/G73N/K197T/S199A
T4 chain: T3 chain with A41P, G42N, A164S

[5] = biological target: T5, human Nectin 2 on CHO cells (human, UniProt Q92692 32-538); assay: flow cytometry on CHO cells expressing human Nectin 2
T5 sequence: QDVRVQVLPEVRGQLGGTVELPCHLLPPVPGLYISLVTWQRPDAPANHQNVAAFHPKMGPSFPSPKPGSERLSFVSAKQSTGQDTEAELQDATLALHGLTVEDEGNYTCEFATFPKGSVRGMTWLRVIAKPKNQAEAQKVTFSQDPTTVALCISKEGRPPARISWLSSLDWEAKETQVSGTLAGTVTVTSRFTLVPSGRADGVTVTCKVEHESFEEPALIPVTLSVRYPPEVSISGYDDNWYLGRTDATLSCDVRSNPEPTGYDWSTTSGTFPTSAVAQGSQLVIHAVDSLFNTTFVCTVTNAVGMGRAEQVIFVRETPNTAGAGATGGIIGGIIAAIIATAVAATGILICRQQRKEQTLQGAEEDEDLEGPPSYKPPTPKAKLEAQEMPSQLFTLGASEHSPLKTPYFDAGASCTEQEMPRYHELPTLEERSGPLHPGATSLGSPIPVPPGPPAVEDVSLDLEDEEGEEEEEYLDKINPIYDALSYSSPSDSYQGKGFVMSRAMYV
Procedure: as §1, §2

B1: antibody 6A7 (antibody, human IgG1, V domains shown)
VH: QVQLKESGAELVKPGASVKLSCKASGYTFTSYWMHWVKQRPGHGLEWVGEIDPSDSYTNYNQKFKGKATLTIDKSSSTVYMQLSSLTSEDSAVYYCARSGNYDAMDYWGQGTSVTVSA
VL: DIVMTQAAFSSAVTLGTSASISCRSSKSLLHSNGITYLYWYLQKPGQSPHFLIYQMSNLASGVPDRFTSSGSGTDFTLRISRVEAEDVGVYYCAQNLELPWTFGGGTKLEIK
notes: also called CHG1-M-4N4-6A7
- binding result [1]: binds
- binding result [2]: no binding
- binding result [3]: no binding
- binding result [4]: no binding
- binding result [5]: no binding
